The test deals with Mannose/N-acetylglucosamine (Man/GlcNAc) receptor on thioglycolate-elicited mouse peritoneal macrophages (mouse) (UniProt Q61830). The test can be described thus: cell-based or functional assay.
Sequence of Mannose/N-acetylglucosamine (Man/GlcNAc) receptor on thioglycolate-elicited mouse peritoneal macrophages (mouse) (Q61830 20-1456): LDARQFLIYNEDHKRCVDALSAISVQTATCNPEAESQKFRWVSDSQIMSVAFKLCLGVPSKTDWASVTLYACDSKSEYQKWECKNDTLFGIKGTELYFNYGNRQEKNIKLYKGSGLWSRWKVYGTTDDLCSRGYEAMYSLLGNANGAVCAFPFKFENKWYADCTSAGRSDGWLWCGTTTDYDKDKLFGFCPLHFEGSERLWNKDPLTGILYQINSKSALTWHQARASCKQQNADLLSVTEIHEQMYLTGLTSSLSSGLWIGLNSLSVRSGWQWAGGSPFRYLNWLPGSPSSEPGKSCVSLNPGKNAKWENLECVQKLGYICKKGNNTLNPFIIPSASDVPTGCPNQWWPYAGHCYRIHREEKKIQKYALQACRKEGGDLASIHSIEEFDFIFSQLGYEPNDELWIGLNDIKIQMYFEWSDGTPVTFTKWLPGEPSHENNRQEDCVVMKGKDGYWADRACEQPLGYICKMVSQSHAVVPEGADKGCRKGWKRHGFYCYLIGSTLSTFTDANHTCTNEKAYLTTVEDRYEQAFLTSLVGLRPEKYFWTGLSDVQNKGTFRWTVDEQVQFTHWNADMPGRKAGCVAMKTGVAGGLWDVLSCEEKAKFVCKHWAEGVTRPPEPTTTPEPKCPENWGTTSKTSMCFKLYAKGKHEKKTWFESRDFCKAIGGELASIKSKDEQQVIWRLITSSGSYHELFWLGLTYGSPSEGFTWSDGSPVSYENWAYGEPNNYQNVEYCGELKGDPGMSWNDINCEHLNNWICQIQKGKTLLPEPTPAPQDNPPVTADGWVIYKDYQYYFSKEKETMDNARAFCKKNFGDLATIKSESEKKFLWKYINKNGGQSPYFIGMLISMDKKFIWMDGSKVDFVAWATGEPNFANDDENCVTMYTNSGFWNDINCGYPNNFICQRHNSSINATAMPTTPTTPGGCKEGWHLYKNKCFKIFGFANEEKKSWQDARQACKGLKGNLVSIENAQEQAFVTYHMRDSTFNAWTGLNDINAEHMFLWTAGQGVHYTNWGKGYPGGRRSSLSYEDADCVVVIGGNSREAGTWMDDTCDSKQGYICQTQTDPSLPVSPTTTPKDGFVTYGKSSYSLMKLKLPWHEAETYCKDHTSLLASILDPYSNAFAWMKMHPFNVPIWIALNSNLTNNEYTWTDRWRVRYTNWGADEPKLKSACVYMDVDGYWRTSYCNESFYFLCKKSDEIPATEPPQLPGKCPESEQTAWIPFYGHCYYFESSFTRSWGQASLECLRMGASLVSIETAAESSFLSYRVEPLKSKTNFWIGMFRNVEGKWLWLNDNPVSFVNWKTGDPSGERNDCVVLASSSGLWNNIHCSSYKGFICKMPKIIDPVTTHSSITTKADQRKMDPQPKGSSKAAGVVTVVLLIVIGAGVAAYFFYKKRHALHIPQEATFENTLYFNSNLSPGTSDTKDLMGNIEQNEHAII

In turn, “Cerezyme (commercial recombinant human GCD produced in mammalian CHO cells) (from UniProt P04062 40-536) (enzyme)” yielded a percent of specific activity from total activity, inhibited by 4 mg/ml mannan of 65%.

For the origin of these results see US20100196345A1.
